Assay: soluble on expression in E. coli; label from the status in PepcDB or PDB records

Q: For “MGSDKIHHHHHHMDEQQQLANAYHSNKLSHAYLFEGDDAQTMKRVAIHFTKLILCNNSNQCELKVDTFNHPDFSYVSSDENTIKKEQIEQLVHHMNQLPIEGQYKVYIIEDFEKLTVQGENSILKFLEEPPDNTIAILLSTKPEQILDTIHSRCQHVYFKPIDKRQFIERLVEMSIARPVAEMLSTYTTQIEAASSLNEEFDLVTLRKSIIRWCQLILSNKAMALIGVIELLKQAKNRKLQLLTLSAVNGFFEDIMHAKIEMDNYYTFSDLTEEIENYANQLTFNQLILMYDQITEAHKKLNQNVNPTLVFEQIVIKGVI”, which “soluble on expression in E. coli” value is on record?
A: Its value is “not soluble”.

Q: For “QTLLNVTLESESMAVDEVVVSARRLNRNDLGISDKEMVSATQKVDMEKLIAAAPVVSIEEALQGQLGGVDIVLGGDPGSRSAIRIRGTSTLNASSDPLIVIDGVPYPTEISDDFNFSTATEEDLGALLNISPNDIASVEVLKDASATAIWGTQGANGVLVIKTKQGT”, which “soluble on expression in E. coli” value is on record?
A: Its value is “not soluble”.

Q: With “GKVEERWTKTTDGKQMLSWVIYPVNFDANKKYPTLLFCEGGPQSPVSQFWSYRWNFQIMAANDYIIIAPNRRGLPGFGMEWLEQISGDYGGQCMKDYLSAIDDISKEPYVDTNRLGCVGASFGGFSVYWLAGHHDKRFKAFIAHDGIFNMEQQYLETEEMWFANWDMGGAYWDKNNATAQRTFANSPHRFVDKWDTPILCIHGEKDYRILASQGMSAFNAAVLRGVPAELLLYPDENHWVLKPQNGVLWQRTFFSWLDKWLK” as the sequence, how does the “soluble on expression in E. coli” value read?
A: Its value is “not soluble”.

Q: For “MAHHHHHHMSDQINVKHKIGDTCRKLYSYFKTVNNTSTFIQNGTLTPSEFVDSGDFLVYKFKTWEWQEADKDRVVPYLPENKQFLITKNVPCKQRIKDLNNIVHDLIMIGYSQVMKKITIPQIYMNIYLIVNTQLMTKMYKMYKITSCYSKNMLHDSNSFKNNFIIIIKNFTCLNIITYDKYYQTPRIWLFGYNENGDPLKSEEIFEDILSDYSYKTVTVKIKIIFMILIRVLVHAEAILNVVNNWISEEKEPRIKKRINVYMYVFCFRHDLYLLFLLKFISGVIPTIEYDFTTDIEIPRDSNAGL”, which “soluble on expression in E. coli” value is on record?
A: The value was “not soluble”.

Q: With “MKKMFLILASAVVSLTACSKDSGDDDSPPIEKQPFNAVIKDGFKDENGVDLLPPRNIGNIKVGDYIPYNVTITDEVAEQEGETYRVVASTYDEGTHQERSVSYDIYLADKEDPTKMVLLENPEQLTFNKRGTYSFFIYPKEAGTYNLRFLLEKSVNNQKIGTSAIPIVTFNAVRITAYSHGYFTGKWKWEWSDSFIPILEEHSVNRRKFFFKIDDGSTEKDKYLQPEKAGIFYFTEYNGDNRGPLSFTVGAEYEYYPEQERTRAIQYLIFLLLK” as the sequence, how does the “soluble on expression in E. coli” value read?
A: The value was “not soluble”.

Q: For “MGKWRYLAIGVCLMTTSGVTFADSLDAQRQRYQQVKLAWDSNQMDTVAQLMPTLRDYPLYPYLEYRQLTQDLSQVSTAQVKDFLNRHPTLPPAKSLPSRFVNELARREDWRGLLTFSPTAPKPVAARCNYYYAKWATGEQSVAWEGASEIWLNGQSLPGSCDKLFSVWQQAGHQTPLATLARMKLALKEGNASLVSYLLKQLPADYQTMGTALAKLQSDPSSVESFARTVGPTDFTRSATTIAFTRLARQDVENARLMIPSLVRLQKMSDSEKLELEEAVAWRLMGNDATYEQAKWRDQVALRSHSTSLLERRIRMSLGSGDRQGLATWLARLPAEAQDKDEWRYWRASLLLEQGKKAEGEAILRSLTKERGFYPMVAAQKLNIPYPIKVQVAAKPDVSLAQRPEIARVRELMYWNMDNQARAEWSYLVASRSKAEQEALARYAFDQKWADLSVQATIVAKLWDHLEERFPMAWTKEFRQFTEDKGITPSYAMAIARQESAWNPKAQSPVGATGLMQVMPRTAEHTVKRNNIAGYLNSSQLLDPVTNIEIGTYYLEEVYQQFGRNRILSSAAYNAGPSRVNTWLGNSGGQVDAVAFIESIPFSETRGYVKNVLAYDAFYRHFMNRPAKVLSDAEWQRRY”, which “soluble on expression in E. coli” value is on record?
A: The value was “soluble”.

Q: With “MSLQVSQYLYQNAQSIWGDCISHPFVQGIGRGTLERDKFRFYIIQDYLFLLEYAKVFALGVVKACDEAVMREFSNAIQDILNNEMSIHNHYIRELQITQKELQNACPTLANKSYTSYMLAEGFKGSIKEVAVAVLACGWSYLVIAQNLSQIPNALEDAFYGHWIKGYSSKEFQACVTWNINLLDSLALASSKQEIEKLKEIFIATSEYEYQFWDMAYQSEGGSHHHHHH” as the sequence, how does the “soluble on expression in E. coli” value read?
A: Its value is “soluble”.

Q: Which “soluble on expression in E. coli” value does the source give for “MSLEYKVEDVSPVKKKVNVTVPVEEVDAALGAAIAMYRTSVNLDGFRKGKVPASIVENRFRKEIYAEATQDLVNVHINEIVTSLAVSPLSRIDFDGGELERGKEFSYTISFEVMPQFDLPDYEGFAVEQEKAVVDEKEVDEVIARIRRNMAELVPVAETRPGADGDVVVLDFAAFENGEPIEGVSAENFQLSLGEKQSLEDFENLVKTIPAGQEAEGPITFPDDFLNPDFAGKTVTMKVKVHAVKERRLPEIDDALAQKAGGFESMEKMRETVVTSYMQSREQLHKATAQKSMLDKLLKMVDFALPESMVDMYVGNLIEDMRVKMERQGRGLESLGKTPEQLREQVLPEAQQIARSQIFLLAAGRKEAVEVSEQEVDGQLQQLAMRSGQDFDTLKDYYVRNGLIFNLRDRLIADKAMDAIYAKANVTMVDPAPAEGHHHHHH” here?
A: Its value is “soluble”.

Q: Which “soluble on expression in E. coli” value does the source give for “MGSDKIHHHHHHMPQITIIVPVYNAERTLERCVRSIQAQTVVNWELLLIDDGSEDYSSKLCDEYAIQDSRIRVFHQVNGGASSARNVGLEYTKGEWVVFCDSDDWVDSNWLELFKNQIDNGTELIVQGFIPHGNLWQSRTGINFHGNVKTGILKLQEENILGFMCTKMYKREIIEQCGLRFDTELVLREDELFMLQYAEYISTIQCMEEGAYHYDMPDFSTKYGNIDLFNMFLKIYVVLKRIFSGEDNLLLQNYENDLTQSLFHSFVMRHDDRCKKLENYRKEVGKRVLGVKSLSQFSKYILAYVPSFQVAYLLLEAKAKIVKSMQ” here?
A: Its value is “not soluble”.

Q: With “MGSDKIHHHHHHMAVTDKERKLAATLSDPVLWGQAYLYNRDGSGRDYWPHQVEDLRCPAKNIIHLDGRDVGKSIVLSTDALHYAFTTRGGQGLVAAPHQGHLDTIIEEIEFQLDTNPDLMNSIALTKYGKPKIHRKPYFRLEFTNGSVLYFRPAGAYGDAFRSLHVGRVWVDEGAWLTERAWKALRQCLKAGGTLRIYSTPNGLRDTTYYRLTSSEQFHVFRWPSWLNPLWTEDREAELLEFYGGRDSSGWQHEVAGEHGKPSYGAFNVEQFNLCRQDLLEYQKIVITDSELRDCDTEEAAHDRLEMLLNLTPRSGQFWVGGDLGYTNDPTEIVVFQEMEVGERTLLKMILRVHLEHVSYPHIAQIIALLERYYTPAGIGVDNGGNGLAVVQELLTLDKYKGLELEGRLKGYDFGGMTRLAVRDGKEIKKRTKELMTSLINGALQRKQLIFPSDDLEVEDQFTTHTYTLRDGKIIYSKGNDHIIDAVRCAMLIREEGNLDPVGEEVVSLKPVLTNPVFI” as the sequence, how does the “soluble on expression in E. coli” value read?
A: Its value is “not soluble”.

Q: Which “soluble on expression in E. coli” value does the source give for “MGSDKIHHHHHHMGISNIKQLYSKWKSLQPLKPEDLKRWNDKFKLEFNYNSNHLEGNTLTYGQTKLLLMFGETSGNASLKDYEEMKAHNVGLEMIKQEAQDKERPLTESFIRELNRTILVQDYWKNAKTPDGQDIRMQIKVGEYKSRPNSVLTATGEVFSYASPEETPAFMTSLVDWYNLEADKGILTPVELAALLHYRYIRIHPFEDGNGRIARLLVNFVLHRYGYPMIVIHSEDKSNYLNILHQCDVEAGLTPSDGANATLNDILPFVNYLSSCLIRSLTLAIKAAKGESIEEEGDFDKKIAMLQRRYSDKAIEKSSRSVEQARSAFFELAVYVEQKISGLQKLFDRTFITNTPTWNMARKINTPNPDEPIIQSHILYTKSKEYSFVEDIIRLSKKSQVDYFKLKYDAVTFHFNHCRYAGDNTFDFPFCIYIQYLSDGCEISCDITSDSVKLSYNPDVLAEEGKEYMDTACNELLKLLEEKMNDKSPEN” here?
A: The value was “not soluble”.

Q: For “MSLREEIKVAVLRMEGTNCEDETVKAFRSLGVEAEAVHIKQFYSDMIRFEEQRSVFDYQCLVFPGGFSAGDYIRAGAIFSARVKSVLRKDIEEFIKMGYPILGICNGFQVLVELGALPGFDEDKPLAEKPEMALAMNDSSRFECRPTLLKKESEKCIFVKNLKKDVVMFPVAHAEGKVVFPSGKEDEYLERLTSNDQIVFRYVDEKGDYAGYPWNPNGSFYNIAGICNATHTVFGLMPHPERAFFGYQVGRREGYGDGYCIFRSVVDYLEEGHHHHHH”, which “soluble on expression in E. coli” value is on record?
A: Its value is “not soluble”.

Q: With “MAHHHHHHMSPVLVPTACEDWSLNIDDESAKRFWWNNTYSITLWEETLNIEQQAEKITDGDVWSKFIDLQLRCAFKICSICHSPEGNADMKICCYCGNTVHENCSEPAAPEQIMWKPANLAYVEHMRACFQCQAVNYKEPLAPQSPSEWDNARRAAKRALTISDEYPPATVERIQKLLQRAETTSNDAVLLSELKSLVQSYFQSPQSLQFLRKERVASKGGGIGVVAARKIPAFSIIGVYPGYLDFMSGEQAKCGRPVPKYALMEYNCANYFNEVFVELQTTFTPFINEPNVDEKSNCAWIQEPHRKNGRLSVICVRDIQEGEELTIGYGPIYPRTYPYCYDAYACHQIEGHTTHPCYSLWHWPTLQEADARFVCHIGYIERDDCYVLWKNET” as the sequence, how does the “soluble on expression in E. coli” value read?
A: Its value is “soluble”.

Q: Which “soluble on expression in E. coli” value does the source give for “ENAFKRRRCGVCEVCQQPECGKCKACKDMVKFGGSGRSKQACQERRCPN” here?
A: The value was “soluble”.

Q: For “GPGSMSMNVYKRQEKLRLYRALLKGANRFPLRSRREIVTEEVRGAFRHPLNDSLTTKEVDYKLLLGWERAAAIQTYAENMYWFHSRDEVSREMMHHSLERDRQRIREMERCNAVGNAEIKTPEVTEFKSSMYHVHPDYHGKIGQMPLTHSRDIWRARGQYGSDVGGPRQKFYVRRFKALFPQGW”, which “soluble on expression in E. coli” value is on record?
A: Its value is “not soluble”.

Q: For “MGNKITVEVTVYAAIEKVWKYWNEPAHIMKWCQASPEWHVPAAQNDLKAGGTFTTTMAAKDGSMSFDFGGVYDQVKTNDLIEYTIGDGRKVRIVFTHTGDTTNIVESFDPEETNPRELQQSGWQAILNSFKSYTENNLEHHHHHH”, which “soluble on expression in E. coli” value is on record?
A: Its value is “soluble”.

Q: For “HLQTKTAAKTGEGLSESAIHRTFQQLASGFDTIYGGFGQAPKFPMPHMLMYLLRYDHNTGQENALYNVTKTLDSMANGGIYDHIGYGFARYSTDDEWLVPHFEKMLYDNALLLTAYTEAYQVTQNSRYKEICEQIITFIQREMTHEDGSFFSALDADTEGEEGKYYVWSKEEILKTLGDDLGTLYCQVYDITEEGNFEGKNIPNLIHTKREQIKEDAGLTEKELSLKLEDARQQLLKTREERTYPHVDDKVLTSWNALMIAGLAKAAKVYQEPKYLSLAKDAITFIENKLIIDGRVMVRYRDGEVKNKGFIDDYAFLLWAYLDLYEASFDLSYLQKAKKLTDDMISLFWDEEHGGFYFTGHDAEALIVREKEV”, which “soluble on expression in E. coli” value is on record?
A: The value was “not soluble”.

Q: Which “soluble on expression in E. coli” value does the source give for “MGSDKIHHHHHHDFLDRHPQGQFTEDDNPGALAEGKVFNIYTMMRNYNITAGIPAFAIEYFRSEDSEKGSTASDGADQAAMYDDFQYNASNGLIKAYWSQNYAVIYQCNDVIETIEKGNLTEENDLRNKGEALFFRAYCYFNLVRAFGEVPLVTFKVNDASEANVPKTTAEEIYKQIDSDLTQAEGLLPRQWQSAYLGRLTWGSARALHARTYMMRNDWQNMYTAATDVMNSGQYNLNTPYDVIFTDEGENSSESVFELQCASTAALPASDKIGSQFCEVQGVRGSGQWDLGWGWHMGTELMGEAFEPGDPRKDATLLYFRRSDTDPITPENTNKPYGESPVSQADGTYFNKKAYTNPALREEFTRHGFWVNIRIIRYGDVVLMAAESANELGKTGEASNYLEMVRARARGNNPDILPKVTSLDQTVLRDAIRHERRVELGLESGRFYDLVRWGIASQVLHAAGKTGYQPKNALLPLPQDEIDKSKGVLVQNPDY” here?
A: Its value is “not soluble”.

Q: For “MGSDKIHHHHHHMSKLDAFIQQAVTAMPISGTSLIASLYGDALLQRGGEVWLGSVAALLEGLGFGERFVRTALFRLNKEEWLDVVRIGRRSFYRLSDKGLRLTRRAEHKIYRASAPEWDGTWLLLLSEGLEKNVLADVKKQLLWQGFGALAPSLLASPSQKLADVQSLLHEAGVAENVICFEAHSPLALSRAALRDRVEECWHLTEQNEMYEAFIALFRPLLPLLRDSEPSELTPERCFQIQLLLIHFYRRVVLKDPLLPEELLPAHWAGQTARQLCINIYQRVSPGALAFVSEKGESSVGELPAPGPLYYQRFGGLPGA”, which “soluble on expression in E. coli” value is on record?
A: Its value is “not soluble”.
